Experimental data: the supplement of paper PMC9112550, “Optimization of the antimicrobial peptide Bac7 by deep mutational scanning” (BMC Biology, 2022)

What follows are sequences tested on Escherichia coli TOP10 (assay: shrunken log2 fold change of peptide-encoding DNA abundance (4.5 h post-induction vs induction); higher = less antimicrobial activity (less host growth inhibition)). Details: time post-induction: 4.5 h; library: site-saturation at positions 5, 18, 19, 20.
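Note: peptides expressed intracellularly from a pBAD plasmid library in pooled LB shake-flask culture, induced with 0.3% L-arabinose, DNA abundance read by NGS, three biological replicates, DESeq2 with apeglm shrinkage.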

Sequence | shrunken log2 fold change
RRIRQRPPRLPRPRPRPEMYPRP | -0.173
RRIRQRPPRLPRPRPRPQGGPRP | 0.00902
RRIRSRPPRLPRPRPRPLLFPRP | -0.129
RRIRERPPRLPRPRPRPGADPRP | 0.146
RRIRYRPPRLPRPRPRPFNTPRP | -0.468
RRIRNRPPRLPRPRPRPKNKPRP | -0.0876
RRIRHRPPRLPRPRPRPSLFPRP | -0.625
RRIRARPPRLPRPRPRPFGVPRP | 0.165
RRIRYRPPRLPRPRPRPEFGPRP | 0.113
RRIRMRPPRLPRPRPRPFYWPRP | 0.086
RRIRPRPPRLPRPRPRPDVNPRP | -0.233
RRIRIRPPRLPRPRPRPIQWPRP | 0.0166
RRIRRRPPRLPRPRPRPNQVPRP | 0.12
RRIRKRPPRLPRPRPRPFTYPRP | -0.0389
RRIRFRPPRLPRPRPRPWKWPRP | -0.0196
RRIRRRPPRLPRPRPRPKITPRP | -0.226
RRIRTRPPRLPRPRPRPLIQPRP | -0.197
RRIRVRPPRLPRPRPRPIWKPRP | -0.168
RRIRGRPPRLPRPRPRPKFGPRP | 0.241
RRIRYRPPRLPRPRPRPCSLPRP | 0.0201
RRIRARPPRLPRPRPRPFSKPRP | -0.301
RRIRCRPPRLPRPRPRPNQQPRP | 0.00277
RRIRTRPPRLPRPRPRPIALPRP | -0.156
RRIRRRPPRLPRPRPRPWYDPRP | -0.25
RRIRARPPRLPRPRPRPRRTPRP | 0.577

Sequence | shrunken log2 fold change
RRIRGRPPRLPRPRPRPDEVPRP | 0.885
RRIRRRPPRLPRPRPRPNFCPRP | 0.171
RRIRWRPPRLPRPRPRPVLGPRP | 0.241
RRIRARPPRLPRPRPRPATHPRP | 0.186
RRIRTRPPRLPRPRPRPEIRPRP | -0.0371
RRIRDRPPRLPRPRPRPMKKPRP | 0.0162
RRIRFRPPRLPRPRPRPVSIPRP | 0.0109
RRIRWRPPRLPRPRPRPKSFPRP | 0.0955
RRIRQRPPRLPRPRPRPLQHPRP | 0.164
RRIRIRPPRLPRPRPRPPETPRP | 0.246
RRIRHRPPRLPRPRPRPSFWPRP | 0.00023
RRIRDRPPRLPRPRPRPYHIPRP | -0.107
RRIRVRPPRLPRPRPRPVWVPRP | -0.123
RRIRERPPRLPRPRPRPVVNPRP | -0.257
RRIRPRPPRLPRPRPRPGRHPRP | -0.166
RRIRKRPPRLPRPRPRPRMRPRP | 1.06
RRIRDRPPRLPRPRPRPGEDPRP | -0.000687
RRIRYRPPRLPRPRPRPLLLPRP | -0.586
RRIRVRPPRLPRPRPRPRRHPRP | 0.252
RRIRSRPPRLPRPRPRPLHRPRP | -0.216
RRIRYRPPRLPRPRPRPACAPRP | -0.236
RRIRIRPPRLPRPRPRPEDHPRP | -0.185
RRIRNRPPRLPRPRPRPYCQPRP | -0.358
RRIRIRPPRLPRPRPRPPCFPRP | -0.11
RRIRRRPPRLPRPRPRPLSWPRP | 0.361

Sequence | shrunken log2 fold change
RRIRNRPPRLPRPRPRPCMRPRP | 0.0891
RRIRQRPPRLPRPRPRPPGWPRP | -0.0951
RRIRARPPRLPRPRPRPAITPRP | 0.322
RRIRHRPPRLPRPRPRPGTLPRP | -0.259
RRIRMRPPRLPRPRPRPSKRPRP | 0.386
RRIRGRPPRLPRPRPRPAYIPRP | -0.156
RRIRERPPRLPRPRPRPHKNPRP | -0.206
RRIRDRPPRLPRPRPRPVDRPRP | 0.358
RRIRQRPPRLPRPRPRPHARPRP | -0.00608
RRIRPRPPRLPRPRPRPPFIPRP | -0.0606
RRIRGRPPRLPRPRPRPAYYPRP | -0.0149
RRIRNRPPRLPRPRPRPNGEPRP | 0.0257
RRIRSRPPRLPRPRPRPAATPRP | 0.67
RRIRKRPPRLPRPRPRPRGQPRP | 0.648
RRIRPRPPRLPRPRPRPMYTPRP | -0.236
RRIRGRPPRLPRPRPRPDCVPRP | 1.39
RRIRERPPRLPRPRPRPTGVPRP | -0.129
RRIRTRPPRLPRPRPRPYLYPRP | -0.702
RRIRCRPPRLPRPRPRPQGHPRP | -0.0916
RRIRDRPPRLPRPRPRPRNNPRP | -0.196
RRIRGRPPRLPRPRPRPYYFPRP | 0.0211
RRIRLRPPRLPRPRPRPTVIPRP | -0.059
RRIRSRPPRLPRPRPRPVSQPRP | -0.0165
RRIRLRPPRLPRPRPRPHVMPRP | -0.266
RRIRWRPPRLPRPRPRPRNCPRP | -0.00862
